Assays:
[1] = target: Abeta 1-40 monomer (UniProt P05067); assay: MPA bead capture, Abeta 1-40 read-out of the CSF sample (noise)
[2] = target: Abeta 1-42 globulomer (UniProt P05067); assay: MPA bead capture, CSF + 1 ng/mL globulomer, Abeta immunoassay
[3] = target: Abeta 1-42 globulomer (UniProt P05067); assay: 42 (globulomer) RLU over 40 (Abeta 1-40 monomer) RLU
[4] = target: Abeta (1-42) aggregates from Alzheimer's Disease Brain Homogenate (human) (UniProt P05067); assay: MPA, AD brain homogenate in CSF, Abeta(1-42) ELISA
[5] = target: Abeta (1-42) aggregates from Alzheimer's Disease Brain Homogenate (human) (UniProt P05067); assay: MPA, AD brain homogenate in plasma, Abeta(1-42) ELISA

Substance	average RLU (40) [1] [RLU]	average RLU (42) [2] [RLU]	42:40 ratio [3]	limit of detection [4] [mL/assay]	limit of detection [5] [mL/assay]
link-FKFKKK (peptide)	198	–	–	–	–
link-KKKFKF (peptide)	279	–	–	–	–
link-kkkfkf (peptide)	254	1600	6.3	–	–
peptoid +++++++	–	–	–	1.6	2.5
